From paper PMC9294072 come the findings set out here.

Like-named read-outs stand apart in the source and are kept apart here.

The target in assay [1] is human N-terminal acetyltransferase D (hNatD) (human) (UniProt Q86UY6).
Assay [2] shares this target. The source holds these as a separate data set.
For assay [3] the target is unchanged. The source holds these as a separate data set.

Regarding “oncohistone H4/H2A pentapeptide G4D (from UniProt P62805 2-6)”, in assay [1], the kcat/Km of Nα-acetylation by hNatD (continuous fluorescence assay) was determined as 483 M⁻¹ s⁻¹. Same read-out and setting: to “oncohistone H4/H2A pentapeptide G4V (from UniProt P62805 2-6)” belongs 3500 M⁻¹ s⁻¹. With “oncohistone H4/H2A pentapeptide R3C (SGCGK)”, the kcat/Km of Nα-acetylation by hNatD (MALDI-MS assay) in assay [2] stood at 1830 M⁻¹ s⁻¹. In the case of “oncohistone H4/H2A pentapeptide R3H (from UniProt P62805 2-6)”, the kcat/Km of Nα-acetylation by hNatD (continuous fluorescence assay) in assay [2] was found to be 4830 M⁻¹ s⁻¹. “oncohistone H4/H2A pentapeptide R3Q (from UniProt P62805 2-6)”: the kcat/Km of Nα-acetylation by hNatD (continuous fluorescence assay) in assay [2] came to 157 M⁻¹ s⁻¹. Consider “oncohistone H4/H2A pentapeptide S1L (from UniProt P62805 2-6)”, for which the kcat/Km of Nα-acetylation by hNatD (continuous fluorescence assay) in assay [3] worked out at 4.17 M⁻¹ s⁻¹.
